Legend:
[1] = target: 1:1 RP105 N402Q–MD-1 complex
[2] = target: bovine 1:1 sRP105–MD-1 complex (building block of the 2:2 complex) (bovine); assay: crystal structure
[3] = target: bovine 1:1 sRP105–MD-1 complex (building block of the 2:2 complex) (bovine); assay: SEC
SEC = target: the molecule itself; assay: SEC

1:1 RP105 N402Q–MD-1 complex
stoichiometry N [1]: 2

bovine 1:1 sRP105–MD-1 complex (building block of the 2:2 complex)
stoichiometry N [2]: 2
stoichiometry N [3]: 2

B1: human 1:1 sRP105–MD-1 complex (complex)
chain 1: WDQMCIEKEANKTYNCENLGLSEIPDTLPNTTEFLEFSFNFLPTIHNRTFSRLMNLTFLDLTRCQINWIHEDTFQSHHQLSTLVLTGNPLIFMAETSLNGPKSLKHLFLIQTGISNLEFIPVHNLENLESLYLGSNHISSIKFPKDFPARNLKVLDFQNNAIHYISREDMRSLEQAINLSLNFNGNNVKGIELGAFDSTIFQSLNFGGTPNLSVIFNGLQNSTTQSLWLGTFEDIDDEDISSAMLKGLCEMSVESLNLQEHRFSDISSTTFQCFTQLQELDLTATHLKGLPSGMKGLNLLKKLVLSVNHFDQLCQISAANFPSLTHLYIRGNVKKLHLGVGCLEKLGNLQTLDLSHNDIEASDCCSLQLKNLSHLQTLNLSHNEPLGLQSQAFKECPQLELLDLAFTRLHINAPQSPFQNLHFLQVLNLTYCFLDTSNQHLLAGLPVLRHLNLKGNHFQDGTITKTNLLQTVGSLEVLILSSCGLLSIDQQAFHSLGKMSHVDLSHNSLTCDSIDSLSHLKGIYLNLAANSINIISPRLLPILSQQSTINLSHNPLDCTCSNIHFLTWYKENLHKLEGSEETTCANPPSLRGVKLSDVKLSCG
chain 2: GGGGKAWPTHVVCSDSGLEVLYQSCDPLQDFGFSVEKCSKQLKSNINIRFGIILREDIKELFLDLALMSQGSSVLNFSYPICEAALPKFSFCGRRKGEQIYYAGPVNNPEFTIPQGEYQVLLELYTEKRSTVACANATIMCS
stoichiometry N (SEC): 2

B2: mouse 1:1 sRP105–MD-1 complex (wild type) (complex)
chain 1: TTSSDQKCIEKEVNKTYNCENLGLNEIPGTLPNSTECLEFSFNVLPTIQNTTFSRLINLTFLDLTRCQIYWIHEDTFQSQHRLDTLVLTANPLIFMAETALSGPKALKHLFFIQTGISSIDFIPLHNQKTLESLYLGSNHISSIKLPKGFPTEKLKVLDFQNNAIHYLSKEDMSSLQQATNLSLNLNGNDIAGIELGAFDSAVFQSLNFGGTQNLLVIFKGLKNSTIQSLWLGTFEDMDDEDISPAVFEGLCEMSVESINLQKHYFFNISSNTFHCFSGLQELDLTATHLSELPSGLVGLSTLKKLVLSANKFENLCQISASNFPSLTHLSIKGNTKRLELGTGCLENLENLRELDLSHDDIETSDCCNLQLRNLSHLQSLNLSYNEPLSLKTEAFKECPQLELLDLAFTRLKVKDAQSPFQNLHLLKVLNLSHSLLDISSEQLFDGLPALQHLNLQGNHFPKGNIQKTNSLQTLGRLEILVLSFCDLSSIDQHAFTSLKMMNHVDLSHNRLTSSSIEALSHLKGIYLNLASNRISIILPSLLPILSQQRTINLRQNPLDCTCSNIYFLEWYKENMQKLEDTEDTLCENPPLLRGVRLSDVTLSCS
chain 2: DHGSENGWPKHTACNSGGLEVVYQSCDPLQDFGLSIDQCSKQIQSNLNIRFGIILRQDIRKLFLDITLMAKGSSILNYSYPLCEEDQPKFSFCGRRKGEQIYYAGPVNNPGLDVPQGEYQLLLELYNENRATVACANATVTSS
stoichiometry N (SEC): 2

From PMC3362203 (Nature structural & molecular biology, 2011)
